B1: 9° N D141A/E143A/Y409A/R406T/L408K: 9° N DNA polymerase mutant (protein, UniProt Q56366 1-775, looked up, variant D141A E143A Y409A R406T L408K)
DNA polymerase: MILDTDYITENGKPVIRVFKKENGEFKIEYDRTFEPYFYALLKDDSAIEDVKKVTAKRHGTVVKVKRAEKVQKKFLGRPIEVWKLYFNHPQDVPAIRDRIRAHPAVVDIYEYDIPFAKRYLIDKGLIPMEGDEELTMLAFAIATLYHEGEEFGTGPILMISYADGSEARVITWKKIDLPYVDVVSTEKEMIKRFLRVVREKDPDVLITYNGDNFDFAYLKKRCEELGIKFTLGRDGSEPKIQRMGDRFAVEVKGRIHFDLYPVIRRTINLPTYTLEAVYEAVFGKPKEKVYAEEIAQAWESGEGLERVARYSMEDAKVTYELGREFFPMEAQLSRLIGQSLWDVSRSSTGNLVEWFLLRKAYKRNELAPNKPDERELARRRGGYAGGYVKEPERGLWDNIVYLDFTSKAPSIIITHNVSPDTLNREGCKEYDVAPEVGHKFCKDFPGFIPSLLGDLLEERQKIKRKMKATVDPLEKKLLDYRQRAIKILANSFYGYYGYAKARWYCKECAESVTAWGREYIEMVIRELEEKFGFKVLYADTDGLHATIPGADAETVKKKAKEFLKYINPKLPGLLELEYEGFYVRGFFVTKKKYAVIDEEGKITTRGLEIVRRDWSEIAKETQARVLEAILKHGDVEEAVRIVKEVTEKLSKYEVPPEKLVIHEQITRDLRDYKATGPHVAVAKRLAARGVKIRPGTVISYIVLKGSGRIGDRAIPADEFDPTKHRYDAEYYIENQVLPAVERILKAFGYRKEDLRYQKTKQVGLGAWLKVKGKK
B2: 9° N D141A/E143A/Y409A/R406L/L408G: 9° N DNA polymerase mutant (protein, UniProt Q56366 1-775, looked up, variant D141A E143A Y409A R406L L408G)
DNA polymerase: MILDTDYITENGKPVIRVFKKENGEFKIEYDRTFEPYFYALLKDDSAIEDVKKVTAKRHGTVVKVKRAEKVQKKFLGRPIEVWKLYFNHPQDVPAIRDRIRAHPAVVDIYEYDIPFAKRYLIDKGLIPMEGDEELTMLAFAIATLYHEGEEFGTGPILMISYADGSEARVITWKKIDLPYVDVVSTEKEMIKRFLRVVREKDPDVLITYNGDNFDFAYLKKRCEELGIKFTLGRDGSEPKIQRMGDRFAVEVKGRIHFDLYPVIRRTINLPTYTLEAVYEAVFGKPKEKVYAEEIAQAWESGEGLERVARYSMEDAKVTYELGREFFPMEAQLSRLIGQSLWDVSRSSTGNLVEWFLLRKAYKRNELAPNKPDERELARRRGGYAGGYVKEPERGLWDNIVYLDFLSGAPSIIITHNVSPDTLNREGCKEYDVAPEVGHKFCKDFPGFIPSLLGDLLEERQKIKRKMKATVDPLEKKLLDYRQRAIKILANSFYGYYGYAKARWYCKECAESVTAWGREYIEMVIRELEEKFGFKVLYADTDGLHATIPGADAETVKKKAKEFLKYINPKLPGLLELEYEGFYVRGFFVTKKKYAVIDEEGKITTRGLEIVRRDWSEIAKETQARVLEAILKHGDVEEAVRIVKEVTEKLSKYEVPPEKLVIHEQITRDLRDYKATGPHVAVAKRLAARGVKIRPGTVISYIVLKGSGRIGDRAIPADEFDPTKHRYDAEYYIENQVLPAVERILKAFGYRKEDLRYQKTKQVGLGAWLKVKGKK
B3: 9° N D141A/E143A/Y409A/R406H/L408G: 9° N DNA polymerase mutant (protein, UniProt Q56366 1-775, looked up, variant D141A E143A Y409A R406H L408G)
DNA polymerase: MILDTDYITENGKPVIRVFKKENGEFKIEYDRTFEPYFYALLKDDSAIEDVKKVTAKRHGTVVKVKRAEKVQKKFLGRPIEVWKLYFNHPQDVPAIRDRIRAHPAVVDIYEYDIPFAKRYLIDKGLIPMEGDEELTMLAFAIATLYHEGEEFGTGPILMISYADGSEARVITWKKIDLPYVDVVSTEKEMIKRFLRVVREKDPDVLITYNGDNFDFAYLKKRCEELGIKFTLGRDGSEPKIQRMGDRFAVEVKGRIHFDLYPVIRRTINLPTYTLEAVYEAVFGKPKEKVYAEEIAQAWESGEGLERVARYSMEDAKVTYELGREFFPMEAQLSRLIGQSLWDVSRSSTGNLVEWFLLRKAYKRNELAPNKPDERELARRRGGYAGGYVKEPERGLWDNIVYLDFHSGAPSIIITHNVSPDTLNREGCKEYDVAPEVGHKFCKDFPGFIPSLLGDLLEERQKIKRKMKATVDPLEKKLLDYRQRAIKILANSFYGYYGYAKARWYCKECAESVTAWGREYIEMVIRELEEKFGFKVLYADTDGLHATIPGADAETVKKKAKEFLKYINPKLPGLLELEYEGFYVRGFFVTKKKYAVIDEEGKITTRGLEIVRRDWSEIAKETQARVLEAILKHGDVEEAVRIVKEVTEKLSKYEVPPEKLVIHEQITRDLRDYKATGPHVAVAKRLAARGVKIRPGTVISYIVLKGSGRIGDRAIPADEFDPTKHRYDAEYYIENQVLPAVERILKAFGYRKEDLRYQKTKQVGLGAWLKVKGKK
B4: 9° N D141A/E143A/Y409A/R406P/L408C: 9° N DNA polymerase mutant (protein, UniProt Q56366 1-775, looked up, variant D141A E143A Y409A R406P L408C)
DNA polymerase: MILDTDYITENGKPVIRVFKKENGEFKIEYDRTFEPYFYALLKDDSAIEDVKKVTAKRHGTVVKVKRAEKVQKKFLGRPIEVWKLYFNHPQDVPAIRDRIRAHPAVVDIYEYDIPFAKRYLIDKGLIPMEGDEELTMLAFAIATLYHEGEEFGTGPILMISYADGSEARVITWKKIDLPYVDVVSTEKEMIKRFLRVVREKDPDVLITYNGDNFDFAYLKKRCEELGIKFTLGRDGSEPKIQRMGDRFAVEVKGRIHFDLYPVIRRTINLPTYTLEAVYEAVFGKPKEKVYAEEIAQAWESGEGLERVARYSMEDAKVTYELGREFFPMEAQLSRLIGQSLWDVSRSSTGNLVEWFLLRKAYKRNELAPNKPDERELARRRGGYAGGYVKEPERGLWDNIVYLDFPSCAPSIIITHNVSPDTLNREGCKEYDVAPEVGHKFCKDFPGFIPSLLGDLLEERQKIKRKMKATVDPLEKKLLDYRQRAIKILANSFYGYYGYAKARWYCKECAESVTAWGREYIEMVIRELEEKFGFKVLYADTDGLHATIPGADAETVKKKAKEFLKYINPKLPGLLELEYEGFYVRGFFVTKKKYAVIDEEGKITTRGLEIVRRDWSEIAKETQARVLEAILKHGDVEEAVRIVKEVTEKLSKYEVPPEKLVIHEQITRDLRDYKATGPHVAVAKRLAARGVKIRPGTVISYIVLKGSGRIGDRAIPADEFDPTKHRYDAEYYIENQVLPAVERILKAFGYRKEDLRYQKTKQVGLGAWLKVKGKK
B5: 9° N D141A/E143A/Y409A/R406T/L408R: 9° N DNA polymerase mutant (protein, UniProt Q56366 1-775, looked up, variant D141A E143A Y409A R406T L408R)
DNA polymerase: MILDTDYITENGKPVIRVFKKENGEFKIEYDRTFEPYFYALLKDDSAIEDVKKVTAKRHGTVVKVKRAEKVQKKFLGRPIEVWKLYFNHPQDVPAIRDRIRAHPAVVDIYEYDIPFAKRYLIDKGLIPMEGDEELTMLAFAIATLYHEGEEFGTGPILMISYADGSEARVITWKKIDLPYVDVVSTEKEMIKRFLRVVREKDPDVLITYNGDNFDFAYLKKRCEELGIKFTLGRDGSEPKIQRMGDRFAVEVKGRIHFDLYPVIRRTINLPTYTLEAVYEAVFGKPKEKVYAEEIAQAWESGEGLERVARYSMEDAKVTYELGREFFPMEAQLSRLIGQSLWDVSRSSTGNLVEWFLLRKAYKRNELAPNKPDERELARRRGGYAGGYVKEPERGLWDNIVYLDFTSRAPSIIITHNVSPDTLNREGCKEYDVAPEVGHKFCKDFPGFIPSLLGDLLEERQKIKRKMKATVDPLEKKLLDYRQRAIKILANSFYGYYGYAKARWYCKECAESVTAWGREYIEMVIRELEEKFGFKVLYADTDGLHATIPGADAETVKKKAKEFLKYINPKLPGLLELEYEGFYVRGFFVTKKKYAVIDEEGKITTRGLEIVRRDWSEIAKETQARVLEAILKHGDVEEAVRIVKEVTEKLSKYEVPPEKLVIHEQITRDLRDYKATGPHVAVAKRLAARGVKIRPGTVISYIVLKGSGRIGDRAIPADEFDPTKHRYDAEYYIENQVLPAVERILKAFGYRKEDLRYQKTKQVGLGAWLKVKGKK
B6: 9° N D141A/E143A/Y409A/R406Y/L408G: 9° N DNA polymerase mutant (protein, UniProt Q56366 1-775, looked up, variant D141A E143A Y409A R406Y L408G)
DNA polymerase: MILDTDYITENGKPVIRVFKKENGEFKIEYDRTFEPYFYALLKDDSAIEDVKKVTAKRHGTVVKVKRAEKVQKKFLGRPIEVWKLYFNHPQDVPAIRDRIRAHPAVVDIYEYDIPFAKRYLIDKGLIPMEGDEELTMLAFAIATLYHEGEEFGTGPILMISYADGSEARVITWKKIDLPYVDVVSTEKEMIKRFLRVVREKDPDVLITYNGDNFDFAYLKKRCEELGIKFTLGRDGSEPKIQRMGDRFAVEVKGRIHFDLYPVIRRTINLPTYTLEAVYEAVFGKPKEKVYAEEIAQAWESGEGLERVARYSMEDAKVTYELGREFFPMEAQLSRLIGQSLWDVSRSSTGNLVEWFLLRKAYKRNELAPNKPDERELARRRGGYAGGYVKEPERGLWDNIVYLDFYSGAPSIIITHNVSPDTLNREGCKEYDVAPEVGHKFCKDFPGFIPSLLGDLLEERQKIKRKMKATVDPLEKKLLDYRQRAIKILANSFYGYYGYAKARWYCKECAESVTAWGREYIEMVIRELEEKFGFKVLYADTDGLHATIPGADAETVKKKAKEFLKYINPKLPGLLELEYEGFYVRGFFVTKKKYAVIDEEGKITTRGLEIVRRDWSEIAKETQARVLEAILKHGDVEEAVRIVKEVTEKLSKYEVPPEKLVIHEQITRDLRDYKATGPHVAVAKRLAARGVKIRPGTVISYIVLKGSGRIGDRAIPADEFDPTKHRYDAEYYIENQVLPAVERILKAFGYRKEDLRYQKTKQVGLGAWLKVKGKK

tested on: modified nucleotide; assay: Screen of DNA polymerase mutants for modified nucleotide incorporation; type: biochemical
From the text: In order to determine the extent of 3′-modified nucleotide incorporation by archaeon DNA polymerases, the titration assay described by Gardner and Jack (2002) was used. In this assay, the efficiency of incorporation of chain terminators was judged by the size of the reaction products in a polymerization reaction. As the efficiency of chain-terminator incorporation increased, the average reaction product size decreased because polymerization was more often halted by terminator addition. By comparing the amount of terminator required to give the same spectrum of reaction products, the relative efficiency of incorporation of the test compounds with the different polymerases was determined.
A complex library of 9° N DNA polymerase mutants was screened for enhanced incorporation of 3′-azido-ddCTP. Several classes of 9° N DNA polymerase mutants were identified with enhanced terminator incorporation. 9° N exo-L408S/Y409A/P410V (Therminator III™, NEB, Inc., Ipswich, Mass.) was purified and characterized in more detail. 9° N DNA polymerase single mutants P410V, L408S, and Y409A and double mutants L408S/P410V, L408S/Y409A, and Y409A/P410V were also purified for comparison. Purification and characterization of DNA polymerase mutants was as described in Gardner and Jack, Nucleic Acids Res. 27:2545-2553 (1999).
A library of 9° N DNA polymerase mutants was constructed by PCR amplification of the polymerase genes using gene-specific primers or codon optimization and gene synthesis Czar et al. Trends Biotechnol 27(2): 63-72 (2009)). The ability to incorporate 3′-modified nucleotide terminators was evaluated by the titration assay for chain terminator incorporation efficiency as described by Gardner and Jack (2002).
Furthermore, the same assay was used to measure 3′-amino-ddCTP incorporation by 9° N exo-L408S/Y409A/P410V (FIG. 3) and to measure rates of incorporation (FIG. 4). Examples of mutants that increased modified nucleotide incorporation by at least two-fold were: […]

Increase of modified nucleotide incorporation, at least two-fold:
B1
B2
B3
B4
B5
B6
